Values of other authors, collected in patent publication US20120107229A1, “NOVEL NANO-PROBES FOR MOLECULAR IMAGING AND TARGETED THERAPY OF DISEASES” (priority 2009, published 2012).

Target: T1, CD44 (Homo sapiens, UniProt P16070)
T1 construct: host or cells: melanoma cells (collagen fragment only)
T1 sequence (P16070 21-742, species assumed): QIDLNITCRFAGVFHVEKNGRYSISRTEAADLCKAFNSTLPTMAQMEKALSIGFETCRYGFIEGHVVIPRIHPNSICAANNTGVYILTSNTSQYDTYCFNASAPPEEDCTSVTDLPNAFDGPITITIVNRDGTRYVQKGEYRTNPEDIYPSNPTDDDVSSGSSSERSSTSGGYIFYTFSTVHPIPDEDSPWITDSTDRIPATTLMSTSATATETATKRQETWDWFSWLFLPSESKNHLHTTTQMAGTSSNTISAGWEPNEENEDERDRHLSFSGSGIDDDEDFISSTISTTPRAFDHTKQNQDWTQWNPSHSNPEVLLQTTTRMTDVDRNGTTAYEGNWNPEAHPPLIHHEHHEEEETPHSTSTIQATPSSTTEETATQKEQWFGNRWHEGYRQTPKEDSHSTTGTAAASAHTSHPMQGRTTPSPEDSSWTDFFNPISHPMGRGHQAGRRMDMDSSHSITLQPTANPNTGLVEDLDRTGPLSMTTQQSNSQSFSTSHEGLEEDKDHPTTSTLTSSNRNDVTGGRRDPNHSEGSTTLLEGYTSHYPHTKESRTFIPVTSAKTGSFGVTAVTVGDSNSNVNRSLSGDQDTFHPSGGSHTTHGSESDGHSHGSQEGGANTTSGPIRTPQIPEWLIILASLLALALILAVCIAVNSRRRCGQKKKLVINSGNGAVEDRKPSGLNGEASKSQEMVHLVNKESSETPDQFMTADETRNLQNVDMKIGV

| Sequence | share of the binding of CD44 to intact fibronectin (fibronectin digestion and fractionation studies) [%] | binding to CD44 on cells (melanoma cells) |
| --- | --- | --- |
| KNNQKSEPLIGRKKT | 65.5 | – |
| GVKGDKGNPGWPGAP | – | found to bind with CD44 on melanoma cells |
